Results taken from paper PMC11940719, “Assembly Formation of P65 Protein, Featured by an Intrinsically Disordered Region Involved in Gliding Machinery of Mycoplasma pneumoniae” (Biomolecules, 2025).
Read-outs that look alike come from different tables or passages of the source.

Legend:
[1] = molecular target: P65 fragment C (tryptic fragment of region II) (Mycoplasma pneumoniae (strain M129-B7)); assay: AUC; sedimentation velocity in 150 mM NaCl, 20 mM Tris-HCl (pH 8.0); absorbance scans at 10-minute intervals; C(s) distribution (SEDFIT)
[2] = molecular target: the molecule itself; assay: as above
[3] = molecular target: the molecule itself; assay: negative staining electron microscopy; proteins at 40 µg/mL stained with 2% uranyl acetate on carbon-coated grids, 80 kV
[4] = molecular target: the molecule itself; assay: AUC; sedimentation velocity in 150 mM NaCl, 20 mM Tris-HCl (pH 8.0); absorbance scans at 10-minute intervals; C(s) distribution (SEDFIT); remark: listed apart in the source

P65 fragment C (tryptic fragment of region II) (domain or fragment)
stoichiometry N [1]: 3

B1: full-length P65 protein of Mycoplasma pneumoniae (natural protein)
chain: MDINKPGWNQSDQQATAYDPNQQQYYGDGSTYYDPDQAVDPNQAYYPDPNTYPDAAAYYGYGQDGQAYPQDYAQDPNQAYYADPNAYQDPNAYTDPNAYVDPNAYQDPNAYVDPNNYTDPNAYYGYGQDGQAYPQDYAQDPNQAYYADPNAYQDPNAYTDPYYVTSTDPNAYYGQVDNVPALEASDLAYEVTPQEQAAEQELFSEPETKVIREIHEFPFEKIRSYFQTDFDSYNSRLTQLKDKLDNAIFSMRKAIDTVKENSANLQIMKQNFERQLKEQQTQRLTSNTDAEKIGAKINQLEERMQRLSRTMESVEWTKKEPRQEQFDPRFVDPRNFNNYVNNTDTMMSMFEKVLMMNLLRSTTPVQPPVQYFTPQPLTASPRPVYEEPISASFRRRGYRGDEFYE
notes: P65 protein of Mycoplasma pneumoniae strain M129-B7, p65 gene (AGC04228), codon-optimised, in pET-15b (NdeI, BamHI); 405 residues; Forms a multimer of more than 60 subunits (about 3.10 x 10^6 Da) by analytical ultracentrifugation; The printed mass of 49,203 Da probably includes the tag peptide; also called Whole
stoichiometry N [2]: > 60

B2: P65 fragment B (residues 185-405) (domain or fragment)
chain: SDLAYEVTPQEQAAEQELFSEPETKVIREIHEFPFEKIRSYFQTDFDSYNSRLTQLKDKLDNAIFSMRKAIDTVKENSANLQIMKQNFERQLKEQQTQRLTSNTDAEKIGAKINQLEERMQRLSRTMESVEWTKKEPRQEQFDPRFVDPRNFNNYVNNTDTMMSMFEKVLMMNLLRSTTPVQPPVQYFTPQPLTASPRPVYEEPISASFRRRGYRGDEFYE
notes: P65 protein of Mycoplasma pneumoniae strain M129-B7 (AGC04228), residues 185-405 by mass spectrometry (26.3 kDa; theoretical 26,279 Da); peptide mass fingerprinting covers at least residues 212-405; source: the digest containing fragment B was used
binding result [3]: binds

B3: P65 fragment D (regions I and II, residues 1-320) (domain or fragment)
chain: MDINKPGWNQSDQQATAYDPNQQQYYGDGSTYYDPDQAVDPNQAYYPDPNTYPDAAAYYGYGQDGQAYPQDYAQDPNQAYYADPNAYQDPNAYTDPNAYVDPNAYQDPNAYVDPNNYTDPNAYYGYGQDGQAYPQDYAQDPNQAYYADPNAYQDPNAYTDPYYVTSTDPNAYYGQVDNVPALEASDLAYEVTPQEQAAEQELFSEPETKVIREIHEFPFEKIRSYFQTDFDSYNSRLTQLKDKLDNAIFSMRKAIDTVKENSANLQIMKQNFERQLKEQQTQRLTSNTDAEKIGAKINQLEERMQRLSRTMESVEWTKKE
notes: P65 protein of Mycoplasma pneumoniae strain M129-B7 (AGC04228), residues 1-320 (regions I and II); No cleavage of the tag is described; The printed theoretical mass of 39,080 Da probably includes the tag peptide; source: E. coli BL21(DE3), soluble fraction, purified (HisTrap HP, size exclusion chromatography)
stoichiometry N [4]: 3
